For data set [1], the target named is S. cerevisiae hexokinase Hxk2 (NP_011261) (Saccharomyces cerevisiae, UniProt P04807). The experiment in a line: Effect of cellobiose on activity of purified hexokinase Hxk2. The class given is biochemical. The following applies: read-out: reduction of hexokinase activity by cellobiose. On the procedure:
(§1) The amount of hexokinase activity in cell extracts was determined by coupling the production of glucose-6-phosphate to the reduction of NADP^+ by glucose-6-phosphate dehydrogenase. 10 μg of cell extract was added to 1 mL of an assay mixture consisting of 50 mM Tris-HCl [pH 8.0 at 30° C.], 13.3 mM MgCl2, 540 μM ATP, 20 μM NADP^+, 1 U S. cerevisiae glucose-6-phosphate dehydrogenase, and 112 mM glucose. The number of pmol of glucose-6-phosphate produced per second was calculated by multiplying the rate of increase at 340 nm by 1.85×10^3, a conversion that was established from a glucose-6-phosphate standard curve.
(§2) The Hxk1 (Accession: NP_116711), Hxk2 (Accession: NP_011261), and Glk1 (Accession: NP_009890) genes were expressed and purified in E. coli. First, the genes were cloned into the PmlI and XhoI restriction sites of the expression plasmid pET302. Hxk1 gene was amplified using the following primers: […]
(§3) These constructs were transformed into the BL21(DE3) strain of E. coli, and the proteins were expressed and purified using Nickel-NTA agarose beads from Qiagen following the protocol for native batch purification provided by Qiagen. […] Protein concentrations were determined by the absorbance at 280 nm using extinction coefficients of 45840 M^−1 cm^−1, 45840 M^−1 cm^−1 and 30370 M^−1 cm^−1, for Hxk1, Hxk2 and Glk1, respectively. […]

The target of data set [2] is T1, Neurospora crassa cellodextrin transporter CDT-1 (NCU00801), wild type, SEQ ID NO: 9, GFP-tagged, in S. cerevisiae D452-2 (Neurospora crassa, UniProt Q7SCU1).
T1 construct: [3H]-cellobiose uptake into whole cells
T1 sequence (Q7SCU1 1-579): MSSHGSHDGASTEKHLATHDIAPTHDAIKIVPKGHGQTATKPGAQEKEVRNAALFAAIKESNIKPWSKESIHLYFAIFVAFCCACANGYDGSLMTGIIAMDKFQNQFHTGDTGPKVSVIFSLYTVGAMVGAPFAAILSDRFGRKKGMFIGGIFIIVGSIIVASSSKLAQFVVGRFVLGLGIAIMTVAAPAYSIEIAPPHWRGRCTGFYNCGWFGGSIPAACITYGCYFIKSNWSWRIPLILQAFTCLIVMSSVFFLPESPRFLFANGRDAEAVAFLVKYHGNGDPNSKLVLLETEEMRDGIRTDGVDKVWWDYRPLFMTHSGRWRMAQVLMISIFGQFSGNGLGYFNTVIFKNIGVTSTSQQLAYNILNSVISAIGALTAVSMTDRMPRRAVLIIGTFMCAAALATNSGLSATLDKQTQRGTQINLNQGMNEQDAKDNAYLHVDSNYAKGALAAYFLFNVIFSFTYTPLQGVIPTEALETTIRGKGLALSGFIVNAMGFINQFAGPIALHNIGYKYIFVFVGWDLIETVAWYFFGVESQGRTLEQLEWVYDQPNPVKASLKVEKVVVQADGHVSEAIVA
Kind of data set: Transporter kinetics, [3H]-cellobiose uptake into yeast. The format is cell-based. The following applies: CDT-1 WT.

The target in data set [3] is S. cerevisiae hexokinase Glk1 (NP_009890) (Saccharomyces cerevisiae, UniProt P17709). The experiment in a line: Effect of cellobiose on activity of purified hexokinase Glk1. The class given is biochemical. The following applies: read-out: reduction of hexokinase activity by cellobiose. On the procedure:
as §1, §2, §3

Data set [4] has as its target S. cerevisiae hexokinase Hxk1 (NP_116711) (Saccharomyces cerevisiae, UniProt P04806). Kind of data set: Effect of cellobiose on activity of purified hexokinase Hxk1. The format is biochemical. The following applies: Hxk1, up to 184 mM cellobiose. On the procedure:
as §1, §2, §3

Substrate in data set [5]: OC[C@H]1O[C@@H](O[C@H]2[C@H](O)[C@@H](O)C(O)O[C@@H]2CO)[C@H](O)[C@@H](O)[C@@H]1O
The experiment in a line: Kinetic parameters of purified GH1-1 (glucose oxidase/peroxidase assay). The class given is biochemical, Neurospora crassa. The following applies: other: GH1-1, glucose production from cellobiose, 50 mM phosphate pH 6.0. On the procedure:
(§4) The amount of cellobiase activity in cell extracts was determined by the Glucose oxidase/Peroxidase assay. […] The number of pmol of glucose produced per second was calculated by multiplying the rate of increase at 436 nm by 1.17×10^3, a conversion that was established from a glucose standard curve.
(§5) GH1-1 and SdCBP were purified directly from the D452-2 yeast strains described above. 200 mL cultures in DOB-uracil-leucine were grown to an OD (600 nm) of ˜7. Cells were pelleted and washed 1× with 40 mL ddH2O. Cell pellets were resuspended in 25 mL of 50 mM NaH2PO4 [pH 8.0], 300 mM NaCl, 10 mM imidazole, 2 mM DTT, and Roche Complete EDTA-free Protease Inhibitor Cocktail, and lysed by passage through an Avestin EmulsiFlex C-3 homogenizer at 20,000 P.S.I. Cell debris was then pelleted, and proteins purified using Nickel-NTA agarose beads from Qiagen following the protocol for native batch purification provided by Qiagen. Protein eluted from the beads was buffer exchanged into a buffer consisting of phosphate buffered saline (PBS), 10% glycerol, and 2 mM DTT, snap-frozen in (1)N2 and stored at −80° C. Protein concentrations were determined by the absorbance at 280 nm using extinction coefficients of 108750 M^−1 cm^−1 and 178540 M^−1 cm^−1, for GH1-1 and SdCBP, respectively.
(§6) A 1 mL assay included either […] of GH1-1 or […] SdCBP.
(§7) To assay the transglycosylation activity of GH1-1 and SdCBP, both enzymes were enriched from cell extracts by IMAC. […] The kinetic parameters of the enriched proteins were also measured, and the results are depicted in FIG. 12 and quantified in Table 12.

Substrate in data set [6]: OC[C@H]1O[C@@H](O[C@H]2[C@H](O)[C@@H](O)C(O)O[C@@H]2CO)[C@H](O)[C@@H](O)[C@@H]1O
The experiment in a line: cells, lysate or membranes. The following applies: other: CDT-1 WT, [3H]-cellobiose uptake, pH 5.6.

Substrate in data set [7]: OC[C@H]1O[C@@H](O[C@H]2[C@H](O)[C@@H](O)C(O)O[C@@H]2CO)[C@H](O)[C@@H](O)[C@@H]1O
The experiment in a line: Transporter kinetics, [3H]-cellobiose uptake into yeast. The format is cell-based, Neurospora crassa. The following applies: pH 5.6.

Substrate in data set [8]: OC[C@H]1O[C@@H](O[C@H]2[C@H](O)[C@@H](O)C(O)O[C@@H]2CO)[C@H](O)[C@@H](O)[C@@H]1O
Kind of data set: Kinetic parameters of purified SdCBP (glucose oxidase/peroxidase assay). The class given is biochemical, Saccharophagus degradans. The following applies: other: SdCBP, glucose production from cellobiose, 50 mM phosphate pH 6.0. On the procedure:
as §4, §5, §6, §7

Substitutions are numbered along the chain they refer to. Names and notes keep the numbering of the source.

Chain of S. cerevisiae hexokinase Hxk2 (NP_011261) (P04807 whole entry): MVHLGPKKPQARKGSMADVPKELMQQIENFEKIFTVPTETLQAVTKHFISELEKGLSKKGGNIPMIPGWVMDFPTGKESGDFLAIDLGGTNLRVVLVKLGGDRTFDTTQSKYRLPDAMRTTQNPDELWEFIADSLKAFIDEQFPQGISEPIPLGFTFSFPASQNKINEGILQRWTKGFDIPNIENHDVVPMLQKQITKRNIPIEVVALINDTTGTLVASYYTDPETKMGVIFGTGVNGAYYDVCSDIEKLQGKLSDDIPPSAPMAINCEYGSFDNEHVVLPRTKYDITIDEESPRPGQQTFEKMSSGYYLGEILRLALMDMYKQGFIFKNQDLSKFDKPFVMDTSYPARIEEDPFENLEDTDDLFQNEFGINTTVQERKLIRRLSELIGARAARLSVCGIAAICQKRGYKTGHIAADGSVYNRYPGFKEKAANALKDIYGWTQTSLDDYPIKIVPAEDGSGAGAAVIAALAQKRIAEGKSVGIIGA
Chain of S. cerevisiae hexokinase Glk1 (NP_009890) (P17709 whole entry): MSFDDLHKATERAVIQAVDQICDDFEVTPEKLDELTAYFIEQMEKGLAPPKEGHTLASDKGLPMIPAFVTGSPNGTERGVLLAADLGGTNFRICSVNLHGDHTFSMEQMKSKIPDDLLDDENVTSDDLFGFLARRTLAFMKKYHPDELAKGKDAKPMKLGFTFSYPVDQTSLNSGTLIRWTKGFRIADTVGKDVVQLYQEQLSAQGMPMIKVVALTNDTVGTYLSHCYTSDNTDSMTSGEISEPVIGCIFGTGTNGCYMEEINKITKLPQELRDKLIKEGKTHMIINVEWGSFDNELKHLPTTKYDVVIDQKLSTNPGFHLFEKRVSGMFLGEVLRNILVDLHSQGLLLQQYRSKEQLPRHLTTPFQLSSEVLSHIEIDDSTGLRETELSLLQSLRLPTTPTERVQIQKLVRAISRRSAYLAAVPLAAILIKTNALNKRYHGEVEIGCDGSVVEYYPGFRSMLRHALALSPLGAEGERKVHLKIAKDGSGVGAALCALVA
Chain of S. cerevisiae hexokinase Hxk1 (NP_116711) (P04806 whole entry): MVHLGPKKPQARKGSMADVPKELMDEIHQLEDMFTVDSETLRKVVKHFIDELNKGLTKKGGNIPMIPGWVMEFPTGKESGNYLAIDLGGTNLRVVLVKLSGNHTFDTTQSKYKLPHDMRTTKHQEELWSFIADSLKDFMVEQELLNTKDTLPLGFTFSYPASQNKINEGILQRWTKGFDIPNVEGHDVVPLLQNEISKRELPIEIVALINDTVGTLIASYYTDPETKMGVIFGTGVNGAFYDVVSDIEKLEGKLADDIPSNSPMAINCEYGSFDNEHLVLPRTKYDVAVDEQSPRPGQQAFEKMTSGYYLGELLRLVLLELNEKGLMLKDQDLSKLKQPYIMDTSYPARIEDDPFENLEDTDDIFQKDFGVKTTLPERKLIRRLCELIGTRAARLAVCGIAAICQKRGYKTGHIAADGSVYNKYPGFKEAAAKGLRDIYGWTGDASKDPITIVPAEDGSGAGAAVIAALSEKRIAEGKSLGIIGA

Regarding `OC[C@H]1O[C@@H](O[C@H]2[C@H](O)[C@@H](O)C(O)O[C@@H]2CO)[C@H](O)[C@@H](O)[C@@H]1O` (some centres unmarked) [cellobiose], the inhibition at 184000 µM in data set [1] and in data set [3] was about 20% in each case. Moreover, the Vmax in data set [2] was 0.60 ± 0.03 µmol/s. Moreover, the “effect of cellobiose on hexokinase activity” value in data set [4] is listed as “unaffected”.

B1: Neurospora crassa β-glucosidase GH1-1 (NCU00130) (Neurospora crassa OR74A) (protein)
chain: MSLPKDFLWGFATAAYQIEGAIHADGRGPSIWDTFCNIPGKIADGSSGAVACDSYNRTKEDIDLLKSLGATAYRFSISWSRIIPVGGRNDPINQKGIDHYVKFVDDLLEAGITPFITLFHWDLPDGLDKRYGGLLNREEFPLDFEHYARTMFKAIPKCKHWITFNEPWCSSILGYNSGYFAPGHTSDRTKSPVGDSAREPWIVGHNLLIAHGRAVKVYREDFKPTQGGEIGITLNGDATLPWDPEDPLDVEACDRKIEFAISWFADPIYFGKYPDSMRKQLGDRLPEFTPEEVALVKGSNDFYGMNHYTANYIKHKKGVPPEDDFLGNLETLFYNKKGNCIGPETQSFWLRPHAQGFRDLLNWLSKRYGYPKIYVTENGTSLKGENAMPLKQIVEDDFRVKYFNDYVNAMAKAHSEDGVNVKGYLAWSLMDNFEWAEGYETRFGVTYVDYENDQKRYPKKSAKSLKPLFDSLIKKD
For the molecule B1, in data set [5], the Km turned out to be 320 µM, the kcat worked out at 7 s⁻¹ and the kcat/Km is 21900 M⁻¹ s⁻¹.

B2: Neurospora crassa cellodextrin transporter CDT-1 (NCU00801), wild type, SEQ ID NO: 9, GFP-tagged, in S. cerevisiae D452-2 (Neurospora crassa OR74A) (protein)
chain: T1 sequence (Q7SCU1 1-579)
In the case of B2, the Km in data set [6] amounted to 7.6 ± 1.5 µM.

B3: Neurospora crassa cellodextrin transporter CDT-1 (SEQ ID NO: 9) variant G91A, GFP-tagged, in S. cerevisiae D452-2 (Neurospora crassa OR74A; G91A) (protein)
chain: T1 sequence (Q7SCU1 1-579) with G91A
notes: [3H]-cellobiose uptake
As for B3, the Km in data set [7] (other: CDT-1 G91A) came to 43.5 ± 10.1 µM.

B4: Neurospora crassa cellodextrin transporter CDT-1 (SEQ ID NO: 9) variant F335A, GFP-tagged, in S. cerevisiae D452-2 (Neurospora crassa OR74A; F335A) (protein)
chain: T1 sequence (Q7SCU1 1-579) with F335A
notes: [3H]-cellobiose uptake
As for B4, the Km in data set [7] (other: CDT-1 F335A) was found to be 114.8 ± 46.4 µM.

B5: Neurospora crassa cellodextrin transporter CDT-1 (SEQ ID NO: 9) variant F213L, GFP-tagged, in S. cerevisiae D452-2 (Neurospora crassa OR74A; F213L) (protein)
chain: T1 sequence (Q7SCU1 1-579) with F213L
notes: [3H]-cellobiose uptake
For B5, the Km in data set [7] (other: CDT-1 F213L) is 188.8 ± 55.3 µM.

B6: Saccharophagus degradans cellobiose phosphorylase SdCBP, wild type, SEQ ID NO: 12 (Saccharophagus degradans 2-40) (protein)
chain: MKFGHFDDKAREYVITDPKTPYPWINYLGNEDFFSLVSNTGGGYSFYKDAKFRRLTRYRYNNVPVDNGGKYFYINDSGDVWSPGWKPVKAELDAYSCAHGLSYTRITGERNGIQAEVLSFIPLGTWAEIQKVSLKNTSGATKKFKLFSFAEWCLWNAEDDMTNFQRNFSTGEVEVEDSVIYHKTEFKERRNHYAFYSVNAPIQGFDTDRDKWKGLYNDFDKPDAVFEGEPRNSEAHGWSPIASHYLEVELAPGESKDLIFVLGYIEVAPENKWESKGVINKSPAKELIARFDSVEKVDAELTKLADYWANLLSTYSVESGDEKLDRMVNIWNQYQCMVTFNMSRSASFFESGIGRGMGFRDSNQDLIGFVHQVPERARERIIDIASTQFEDGSAYHQYQPLTKRGNNAIGGNFNDDPLWLILSTTDYIKETGDFSILEEQVPYDNDASKATSHFEHLKRSFYHTVNNLGPHGLPLIGRADWNDCLNLNCFSEDPNESFQTTGNKTGRTAESLMIAGLFVLYGNEFVKLCREIGQDGEAAEAQAHIDQMVEAVKKHGWDGEWFLRAYDYYGKKVGSKENEEGKIFIESQGFCGMAGIGLEDGLVEKSMDSVKEWLDCDYGIVLQQPAFTKYYIEYGEISTYPAGYKENAGIFCHNNPWIMITETLLGRGDKAFEYYRKIAPAYLEEISDLHKVEPYAYCQMIAGKDAYLPGEGKNSWLTGTASWNFAAITQYILGVKPDYSGLAINPCIPSSWDGFKVTRKYRGATYNIIVTNPTHVSKGVKSLTLNGNAIDGYIVPPQQAGTVCNVEVTLG
As to B6, in data set [8], the Michaelis constant (Km) turned out to be 650 µM, the kcat was 7 s⁻¹ and the kcat/Km was determined as 11500 M⁻¹ s⁻¹.

For the origin of these results see US20140057323A1, “ENHANCED CELLODEXTRIN METABOLISM” (The Board of Trustees of the University of Illinois, priority 2011, published 2014).
